One substance from PMC3368277 can be followed below.

The experiment deals with His-tagged recombinant C0–C1 domains of cardiac myosin binding protein-C (mouse). Description: pull-down.
Sequence of His-tagged recombinant C0–C1 domains of cardiac myosin binding protein-C (mouse) (O70468 whole entry, the tested form may be a part): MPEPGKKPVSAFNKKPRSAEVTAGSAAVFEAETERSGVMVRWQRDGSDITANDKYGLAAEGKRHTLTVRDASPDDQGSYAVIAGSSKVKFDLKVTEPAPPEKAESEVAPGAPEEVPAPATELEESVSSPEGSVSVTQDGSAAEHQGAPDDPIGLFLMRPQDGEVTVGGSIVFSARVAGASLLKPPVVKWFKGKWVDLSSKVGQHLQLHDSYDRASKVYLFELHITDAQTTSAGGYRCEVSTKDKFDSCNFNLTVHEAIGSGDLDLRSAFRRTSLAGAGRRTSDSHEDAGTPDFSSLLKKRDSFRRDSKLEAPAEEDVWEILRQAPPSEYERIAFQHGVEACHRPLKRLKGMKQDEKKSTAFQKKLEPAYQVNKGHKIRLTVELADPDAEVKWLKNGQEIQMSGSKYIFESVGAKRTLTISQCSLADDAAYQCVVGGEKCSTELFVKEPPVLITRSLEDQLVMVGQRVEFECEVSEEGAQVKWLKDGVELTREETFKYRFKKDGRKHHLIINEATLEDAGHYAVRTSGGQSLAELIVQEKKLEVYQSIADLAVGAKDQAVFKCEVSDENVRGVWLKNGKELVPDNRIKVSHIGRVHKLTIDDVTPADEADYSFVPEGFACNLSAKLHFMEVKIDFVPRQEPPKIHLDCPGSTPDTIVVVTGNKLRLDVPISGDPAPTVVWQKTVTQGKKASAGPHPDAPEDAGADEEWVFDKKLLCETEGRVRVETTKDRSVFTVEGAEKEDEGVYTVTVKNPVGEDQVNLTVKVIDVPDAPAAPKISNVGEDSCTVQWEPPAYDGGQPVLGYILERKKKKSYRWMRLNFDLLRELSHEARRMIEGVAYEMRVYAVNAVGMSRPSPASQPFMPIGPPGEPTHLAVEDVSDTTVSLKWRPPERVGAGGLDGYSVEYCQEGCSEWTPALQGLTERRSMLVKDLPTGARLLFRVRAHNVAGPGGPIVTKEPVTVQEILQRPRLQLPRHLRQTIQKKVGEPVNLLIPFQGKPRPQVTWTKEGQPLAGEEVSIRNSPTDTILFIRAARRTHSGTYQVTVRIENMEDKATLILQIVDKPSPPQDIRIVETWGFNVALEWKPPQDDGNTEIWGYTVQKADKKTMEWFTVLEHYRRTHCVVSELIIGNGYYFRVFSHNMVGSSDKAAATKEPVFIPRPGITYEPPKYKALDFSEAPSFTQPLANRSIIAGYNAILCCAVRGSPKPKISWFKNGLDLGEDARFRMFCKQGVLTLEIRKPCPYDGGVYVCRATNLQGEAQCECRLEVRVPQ

For the substance “sarcomeric actin (from UniProt P68033 1-377) (natural protein)”, the reduction of binding against C0–C2 (quantified blot) turned out to be 50%.
